Assay [1] concerns the target CrAPE1 C128S mutant, recombinant soluble region of the DUF2854 of APE1 from Chlamydomonas reinhardtii (Chlamydomonas reinhardtii). The assay can be described thus: SEC-MALS.
The target is the same in assay [2]. Kind of assay: MST.
For assay [3], the target named is Plastid Copper Chaperone 1 (PCC1) from Chlamydomonas reinhardtii, recombinant, produced in the presence of Cu (Chlamydomonas reinhardtii).

With “CrAPE1 C128S mutant, recombinant soluble region of the DUF2854 of APE1 from Chlamydomonas reinhardtii (domain or fragment)”, the stoichiometry N in assay [1] turned out to be 2.

For “Plastid Copper Chaperone 1 (PCC1) from Chlamydomonas reinhardtii, recombinant, produced in the presence of Cu (natural protein)”, the Kd in assay [2] was 0.0386 µM. Further, in assay [3], the stoichiometry N came to 2.

(Values after article doi:10.1101/2025.07.25.666786.)
